Laboratory results as given in patent publication EP2329839B1.
Values joined by “and” are separate entries in the source; they are usually repeats but may differ in a detail not shown here. Equal values may be shown once. Where no end group is shown, it is not given here.

Assays:
[1] = target: MC3-R (mouse arcuate nucleus) (mouse) (UniProt P33033); assay: cell-based or functional assay
[2] = target: µ opioid receptor (MOP-R) on mouse POMC neurons (mouse) (UniProt P42866); assay: cell-based or functional assay
[3] = target: T1, NPY Y2 receptor (on cell lines expressing it); assay: receptor-binding studies on cell lines expressing the NPY Y2 receptor; labelled ligand not named
T1 sequence (P49146 whole entry, species assumed, looked up): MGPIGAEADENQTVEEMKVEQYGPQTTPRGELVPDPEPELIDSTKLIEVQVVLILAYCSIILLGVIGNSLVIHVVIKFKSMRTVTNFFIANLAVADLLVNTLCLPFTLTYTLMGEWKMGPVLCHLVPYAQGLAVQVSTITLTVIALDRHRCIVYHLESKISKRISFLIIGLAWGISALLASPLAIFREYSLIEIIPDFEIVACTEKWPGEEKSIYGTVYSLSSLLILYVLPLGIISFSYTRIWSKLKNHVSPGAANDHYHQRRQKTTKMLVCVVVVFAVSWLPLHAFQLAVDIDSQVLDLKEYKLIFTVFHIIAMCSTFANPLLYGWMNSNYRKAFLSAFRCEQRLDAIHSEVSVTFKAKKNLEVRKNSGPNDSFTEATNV

UniProt P42866, sequence (P42866 whole entry): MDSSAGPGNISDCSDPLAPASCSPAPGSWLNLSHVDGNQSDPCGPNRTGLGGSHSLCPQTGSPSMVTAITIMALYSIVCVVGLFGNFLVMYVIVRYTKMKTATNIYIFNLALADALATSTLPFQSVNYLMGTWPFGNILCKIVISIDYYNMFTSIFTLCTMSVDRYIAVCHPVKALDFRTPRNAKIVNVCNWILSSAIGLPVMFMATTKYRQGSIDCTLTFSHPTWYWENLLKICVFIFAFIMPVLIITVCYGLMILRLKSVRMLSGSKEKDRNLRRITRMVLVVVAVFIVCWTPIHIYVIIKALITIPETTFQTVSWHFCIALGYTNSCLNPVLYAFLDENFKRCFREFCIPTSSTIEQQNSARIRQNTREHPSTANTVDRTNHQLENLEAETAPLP
UniProt P33033, sequence (P33033 whole entry): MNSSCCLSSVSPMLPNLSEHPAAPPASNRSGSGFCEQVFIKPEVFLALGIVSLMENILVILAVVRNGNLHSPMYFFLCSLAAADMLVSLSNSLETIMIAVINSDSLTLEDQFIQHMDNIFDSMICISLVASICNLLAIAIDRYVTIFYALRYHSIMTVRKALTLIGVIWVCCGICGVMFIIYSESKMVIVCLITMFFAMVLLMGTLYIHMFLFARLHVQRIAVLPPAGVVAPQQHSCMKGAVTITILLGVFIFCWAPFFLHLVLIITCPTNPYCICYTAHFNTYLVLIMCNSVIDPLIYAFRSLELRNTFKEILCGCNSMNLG

## D-Trp^8-γMSH (peptide)
[1]
  frequency of GABAergic IPSCs recorded from POMC neurons: 280%

## met-enkephalin (peptide)
[2]
  hyperpolarization of the membrane potential of POMC cells (whole cell recording, mouse slices): 10 mV and 20 mV

B1: N-acetyl (Leu^28, Leu^31) NPY (24-36) (peptide)
peptide: Ac-LRHYLNLLTRQRY
modifications: ends and bridges not checked
[3]
  IC50: 1.3 nM
